Data reported in publication doi:10.1101/2021.09.03.458554 (bioRxiv, 2021).

Columns and labels:
hGid4 (Δ1-115) = target: T1, hGid4 (Δ1-115) (human, UniProt Q8IVV7 116-300); assay: fluorescence polarisation
T1 sequence: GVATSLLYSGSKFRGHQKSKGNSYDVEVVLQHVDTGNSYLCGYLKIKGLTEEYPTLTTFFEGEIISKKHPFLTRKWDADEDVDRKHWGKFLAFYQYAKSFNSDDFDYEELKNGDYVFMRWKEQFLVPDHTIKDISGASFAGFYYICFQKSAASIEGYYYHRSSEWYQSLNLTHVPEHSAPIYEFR

yGid10 (Δ1-64, Δ285-292) = target: T2, yGid10 (Δ1-64, Δ285-292) (S. cerevisiae, UniProt P53242 65-284); assay: crystal structure
T2 sequence: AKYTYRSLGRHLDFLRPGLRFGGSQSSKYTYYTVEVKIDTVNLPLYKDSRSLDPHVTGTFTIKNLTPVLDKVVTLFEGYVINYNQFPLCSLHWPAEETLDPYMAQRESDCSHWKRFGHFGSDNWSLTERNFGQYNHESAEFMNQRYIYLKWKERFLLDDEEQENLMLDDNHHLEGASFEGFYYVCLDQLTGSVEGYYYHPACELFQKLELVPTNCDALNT

Binder	binding result (hGid4 (Δ1-115))	binding result (yGid10 (Δ1-64, Δ285-292))
GVATSLLW [GVATSLLW peptide (hGid4 residues 116-122)]	binds	–
FWLPANLW [FWLPANLW peptide]	–	binds
